Target: Parkin 80-465 (UniProt O60260)
Experiment: AlphaScreen, competition with GST-Ubl (1-76)
Details: reference: unphosphorylated Ubl (1-76); sites S65

Parkin Ubl domain, 1-76 (from UniProt O60260) Ubl (1-76) phosphorylated by TcPINK1, Mono-Q purified
binding against the reference: weaker
